# Laboratory results reported in the DeepSol protein solubility set.
# Experiment: soluble on expression in E. coli; label from the status in PepcDB or PDB records
row,Sequence,soluble on expression in E. coli
1,MAHHHHHHMIAATQVPGLNEISRQAASGSPFPQVLPPRYPANKVSTAGLQSSNHGAAQLVHDVNNVAAEIHHPLITAADYSDRRQLLSHITVLSGQLQRAQLLLRNTPSCVVSDADIARFDPLIAQAEVERLDSALAQLSLLHEMERARSGSLEAEQQQLREERNQLVARVDTLESRSVALETENVQLRSALEVAQQELQVLRVGESALGNKLHAIEQLQRDGGRFDGVNVVIAPPRAVCSTAAKELQLQENIQRLSLLLDMMMDPMYIAFDAGVVWITETEHHRAGGQVCGAALSNAPHDSEELTTTVGGNSPLGNASDATLPQDVVANPPHVVASEVDISLLQQQQQELCRQLDAVRESCRVAERNQERLQDLLLEEQRRTEAMAQEHCKQLQCVHDRVVHERRQVVESLVAEVEEKMRNAFRDGRLYQKQLDERLIHRRSSSTFQSRSGHSSARSTPFASRHKAFGGNGTCKGDGDANSSRSARSPILGG,not soluble
2,MAHHHHHHMIARDPPQEGRLPDPSRLPYDDERFAEMLLEMEVNGVIDETWQDAKKARMEDVKEIANILSSLKVRDLCCVDVSEKTSNFDYMMFGTCEGARHIHLAAWAVQDADKVHRISKIKRQQTDELWEVVPVGRIVVNLMVESFREEMTLERKWAVTRSMDPLAAANAPISEGRQVKAHGLWTLTLNLQDLEDFEVDYCKDILMRQM,soluble
3,MAHHHHHHMILHGALSQERDRLLSSYLKSPITLSFPPPLPLLALPSPPSFFVYKKNVFFFRLGMGDARSASSKASSPSCVLAATPRDFGRSAEPGDSPRPPIIAVLYRPGQAKRERQPARGGRGGGQRRLVSYFLPALAAHVRHGKQWTTYPLSFLYPYRPSHSLSTPPHTPSIITDPRITRRKLASVLSLFYLQSVTMMASGGDEQLDALVDSILQSSDHLGSIDQITQRLPSPQQQQLSNPAFTSSTQQREHTSSDSHDTGVRAHMHAVSPGGSSSSVGNFVVAVPAAHHASASTSRATATHLDTEDGEKGEEEDDLSALVERILAGPGVRGRPSTSSASSPRFSQVPPPHIGNSGATSTSGLKGATRVKGGSSSLSRTFGAGPASPNARMQAVVRRLTLWYERKEAKRVQAVYEALEREQLDCTFEPRINRLGVEVGGSVVVDEDDRPLHRRHYSADEYPRRSSASSKARGSSGSRAVSHTNTISMSSSSSRVTPHVCEYIPSLQPPSQPITGADAFVERLRRAQDERDTVREAEEAKRLHYYDPTTFRRDLTVPVPFEFVETRPRRLAAAMTAAAGGSPSRGPGDIVGVTRTSIPPFSARAAALAACGDAGATPPRPAEDGFRDVNEDKRLTPENTFLSLAPHIRETLLFDRQMELQLRRATDSVRRVTRGE,not soluble
4,MAHHHHHHMKEGDFEGAEERFIKAIEEIEKFPEGKVDPKLVEQMRELLEDAREMKDGRFKEIQEFIQEQFAVNETERLPTAHEFYGDVDEQQHPFVSRLPNDGECSALSMPQSNTNPVQWSEHSNSMSLSLFPSQVNGRSSEASNSQPVQHVVARRKPKPLQKQKALEVESSGNVSTGSDMKRFRAES,soluble
5,MAHHHHHHMKGVSIRQLDAIIILDSDGKRIAVKYYNDQFLPKGESKLIHKSPSRDSISYPFEDTYNNLRTVEDQKMFENDITEKARKLGGNSSETEVLILSKFTVLYLLINDVSIYIVGDEGDNEIILHEIMQTVQQCLESVTNNQIGRKQLLEKLDSIYLILDEIADSGIIMETNPNVIINRLYMHESDLQEHTPLNQAISSAKENIIRSLLSGT,soluble
6,MAHHHHHHMKIHIFLIATIYVLFSEKLIKWTTASTTQGGDTDTHPGTPPGEGSDVSQGAGQDASQGAGQDANPDPTLPKPPSPPADDTKDTGSQGDADSSSSKIEIPPLVKPENHKTIVSAMLKNYKGVKVTGTCGADFGLFLVPHIYVHVKSEDTEIELSSELAPPEMQTKFDKTQLKKFCVKDDTKKFDFIAYIYKDILVFKWKVYEEGLSKEQDVDEMKYLLPNLKQPITSIQVHSWTGTKESYILESKDYVLGEGMPEKCDAIATDCFLSGFTDIGKCFQCKLLMQEKNINDSCFKYVSSNQKELIKKQLKITAQDDEESSEYHLSESIKNLLKNIYKKNNDDNKKKELLHFENVNSALKSELLNYCNLLKEVNMNGVLKDHQLGNVQDVFNNLTKLLEEHKEENDNVLYHKMKNEALCLKNVNDWMKNKTGLLLPQLSYDLTYKNNNFTEFTQNKSYTSQNIVDKLYCNHEYCNRLKDHNNCISKINVEDQKNCALSWAFASKYHLETIKCMKGYEPLNASVLYVTNCLKNKNKDVCTEGSNPLVFLETIEEKGFLPTESNYPYDQSKVGDICPQLQNDWDNVFENTKVLDYNNGPFSVGTKGYIAYESEAFQKDMHSFVKLVKDEIMNKGSVIAYVKAENVLGYELNGKKVQNLCGDKTPDHVVNIVGYGNYINNKGEKKSYWIVRNSWGKYWGDDGYFKVDMYGPSTCEDNFIHTVVVFNVQVPINEKFDKKEHDIYNYYLKTSPEFYHNLYYKTFNS,not soluble
7,MAHHHHHHMKKQIKWKAHKGVVLCADWSRMSGMIVTGGEDGVYKVWDPYGCSIFVAAAGEHPITSVRFAADGESFAVGSFMNVRVCDKTGWSHSYERTTEGSAMALDWMPDGTQMILGNGTGALSIAQIVDRKVSWGPYTVTLLDSRRLTVQDVVKDTVQEIELADKVIKLELGCGYLVVCTTTQCCCYPMDRLNAPVQFDLRDPVISIILGPRQFLLADCSQGLQVYSYEGRQISVLRLQVTLKPEIMTTNLLSLSPETVAMRNPADAKRILFFDVSSGKPFDAASVAHHLDIVSVHLSQSGSLHDRKIAFIDRNNDLYFGPVHTQLGFHKLSTMTTSVAWHDSHETLVAIADGHLATWYYPSTIFTDRDLLSLTKTVRDGGHTEFTRNDRITHFHHTRVLVRRGGDGALLTLPVSPYTVMIFQLVTQKNNWDGATRLARFLKDPLLWAVLTALALRAGELNVAEIGYGALSDLAKVRYIHYIKGIPTPEARQAELALFQHRPAEAERILLQAGLVYRCIDMNTRLFKWERALEIAKERKTHLDTVLGRRERYLQEVSQKEMLAPFKDLSGKVKVDWAVIEEKVKQEVIKESERPNAKPYA,not soluble
8,MAHHHHHHMKPLAPFVCRLPSRRILRVRGTDAHDFLQGIFTNDLRELHPAGSMYGCFLYFTGRVLCDAHLYQCKQVHEGQASILVDVHERSATELLDHLTEMKMRKKVHIDDVGKELVVLAALEETSADAQRSRDSASGCDARESSVTSLSPETLEERHTECFLDPRNDALFPRPPPPSSSSPPAAVTSPSFCLRKCVVPATWAPPLSSPDSYTTLLYSRGIGEGPDVFKCNKSLPFEGNLDFLKGVSFHKGCYVGQELTHRTHVMLVTRKRTVPLHFGPANVDPPAAGIITDEGAVTKTWPVEVGEPLYSAAREKIGEVTGVCGQVGIGLFRLRYVDKATHTVPGLQLKDGTPVQTHLPDWWPRKDVKKLLQNNS,soluble
9,MAHHHHHHMKPTKPLLYITGYGPFLEVTENPSATIAQSVAEQVRQSGEADVHHETLDVNLEAVSKYFNRLNESVTAHLEATHPENRVLLVNVGLHSREKEKVLRLEVRAFNELEGNPIDDELPLSTCKDSAFVKGCKLETTTALIEELNAIERNGSDHHEKPRWIISYDAGRYYCNYALYRGVKMQEALNSRVFAVFLHIVASTVVCMEEQVAQVRMLVSHLLKHMEAVE,soluble
10,MAHHHHHHMKRLIQSLQHFSVTSSEHVELFSKITLRDFGFYVSDADAMRYVADEAYSIAERAFQLENALHQHRLSASTAQVSPMAWKSSSNDTVGCSTLYQDEAVTLCWFVLPPGKVLPLHDHPGMTVWQRAMHGRLHLCSITREAVSQTSTGASTAPINGTVVFDGELDGVGDAIPASDVLGFTPTDGDGGGMLHEIRNIDATQPALFVDIISPPYNQASSSMVCGYYTAEPLNATATLLPALAADCGVRHQLKAGDKVRLRPRTNYSGPAMNAFLHVV,not soluble
11,MAHHHHHHMLAGLLRGIRAATAPQRSRRRFLPRMRQRSSFSAVSSAAMFKNTLTTQRAQKGDYGFNVFHNSNPQHGGSYARHERRMREDEVEDFLKSVKHWRPLHEDVADGDLVDDAQSSSSTSAPAAGPPMPRLARMGEEAIMRTFQFETFREAYLFMGRVWAFCYGSDKYPHVTWEGTALTVYLYSSSFRGLSKREARVAAFLNDQYNMLRKSKWQQRRIVDGIVRQSAVEELLGEEVAAHLAHRETLRTAPLQEVQDGPRSWRSAIGSPLRSPNSGSDGAGSSMGVRES,not soluble
12,MAHHHHHHMLCLVRAAEPKPYTALSPEALYEAVQPHDHTLRPSPFIAHQALMDFYKACDGYYGVNREEVDVQQLTSFEHKKTHGGASSGNNSGSNSGATLSSLLSGSASAAPSSSLSAAAGAPPLPPLPSPDDPNLAEKLNDYRIAQLRRNAQHVDNTVYHAHNSSNGGSNSNVANAGSSGVCHFYRTPEGCQRGAACPFTHLDKHGQPVNRVAKS,soluble
13,MAHHHHHHMLCRNVSRSYSARRRCRPSVCVAFGALLVEPPQAAYLRRCAVSSRATATAASLSSDHASLSVCKRCEHTTTIATPPERVLTTKEQVDELMDSFAEACELITDAKESVGTTYFADDMEDAEKQTHDVLNRWESLQAALERKGTAEELQKVRNMYDLKIKQLKAELEAVREAGGAG,not soluble
14,MAHHHHHHMLHGNWKYLRQGGRQWMEKQARDPFVLEARRRGYVARSAFKLLEMDDKFGLFARNHTRVVVDIGCSPGGWLQVARERCGDRCALFGVDLLHVSPTVTGAVCIQGDFTDMAIQQQLLSRMENVHANGLVDVVMSDMCLNRGSGGTDDRQKQMQLNMEALAFATSQLRTGGNFVCKVLGTPTAFEELRGELQRWFVRSSLCKPFSSRRGSDEAFMVCLAKRETPRPRGCNIAEGETRDFGLDDWPGFLRRPRQKR,not soluble
15,MAHHHHHHMLKKGFTATKIIGKRCFQWWDNLNTSWKFAIGFSVLFPPLWNYNERRKAREKQVYYNKSIKDYVFFDIAIENKYVGRVLIGLYSDQVPLSVENFIQLAEGYKVKDKYIGYRNTFIHKIYPGIGLVGGNVLNDKEGLSIYGKKFPDENFDMEFVQDGDVALFNEGPHSNSSQFIITFSPMPILHKHNVVIGTVLKGMDIIRMIENVGTKLGNPMYNVKIINCGLYRSLEQDGPPFFNMLHISDKGNKNIISKKEFENLSEQQRQSLMEEIGKSEKQR,not soluble
16,MAHHHHHHMLQQLNEEKNIRKALESRIREVNVSLRRYGVCIADAKEVTNESREFSEATDAFILAALEEKDTMDGDLCAKLQQQLRVKQRLTELRHQHQRKLDDMLRKYELIKTGRTTANNGAGADNNMLHPGLVDEAAAQQIKELLHRKDEEIERVIKEKEKTCDRIVKKLNKCELRIKELEATLEEERVQSTEERQELDRENRELQRYNQQLSVELETLRGQLSEMKEEMDFMERAKSAEIERWKEEAANGAGRLEEMRFKMAAYSELQKSYDRLQEQLQRTEVSLKEKSDNLENTRQMVKWSNSLLATEKQKVEQMEMMLKQQEVEMRRREEQLKSEMMNDINKQVAANNRRMQEQAAQYQELISQEQDKQKSIMKKVKSSRKETQKAAQRYDEMILENEALLSKLEELKVTSMRIFLEKQEAQRELEALRPTKHVANRRL,not soluble
17,MAHHHHHHMLQRLQLFRSTLVNFLEWRNFSDVVHGCYVRVLLEMRSTEENRRESPDNYYIALVKGAQRGPVYSGFSADAVTTEWHIVIELPPCFRSTQNGNVVQLNSISNSPFRQAEYQNWVDMTNETRELSFPSLPQLQFRLGMLEEHKQQALTPEPRRHRNGEDAEAAALREWALEEKRKRITEEIMVTHVKLRRIDQLKALSLEDLQEVEREILDLITGVRISINERSKCMLCHNRICTEICYPCKHQVLCKDCAKSIRGRCPAPKCKTPVQYTFEAFTS,not soluble
18,MAHHHHHHMLQWEWPTSLCAERRELIRAAVERAIRNSMAEGSDGQIRGTVNVDELNLGSNPPEVTLSGIRMLSAERTVIMVKVRYTGDFFIRLSGLEVNLDMVGSGAEEADNNFALPFFCPFEMTLRDILIDGMVAIEILQELEENVQWGKCADVPVAPLATTVRSRKNTNGMRPPCRAGTPSTRHRSGYGVLLGGGGRGAMRLPGVLDSIDGSLSSVDMEGASEGHPRHSLRVRNVSPPFFDILSTKVLVKQRVVKMQLFGDPLKSFRVLSNFGSVQGADCKAEQTIRKLIKPAIEQLIEEGIIFNI,not soluble
